Measurements published in the supplement of paper PMC9170038.

System: MS2 coat protein
Assay: apparent KD of MS2 coat protein; designed switch direction (-1 OFF switch, 1 ON switch): -1; higher = weaker reporter binding
Procedure, shortened: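 Each step of the titration lasted 0.8–1.5 h at the lowest concentration and 10–20 min at the highest. The protein, SNAP-549-labelled MS2 coat protein, went from 0.7 or 1.5 nM doubling to 3 µM over RNA switches transcribed on Illumina chips by stalled E. coli RNA polymerase. Normalised cluster fluorescence was curve-fitted, and the per-design median over clusters is given as apparent KD.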

[1] = Eterna round: R95, input ligand: microRNA oligo, concentration not stated
[2] = input ligand: microRNA oligo, concentration not stated
[3] = Eterna round: R95, input ligand: FMN 200 uM
[4] = Eterna round: R95, input ligand: none

Sequence | apparent KD of MS2 coat protein [1] [nM] | apparent KD of MS2 coat protein (input ligand: FMN 200 uM) [nM] | apparent KD of MS2 coat protein [2] [nM] | apparent KD of MS2 coat protein (input ligand: none) [nM] | apparent KD of MS2 coat protein [3] [nM] | apparent KD of MS2 coat protein [4] [nM]
UUUUAACAUGAGGAUCACCCAUGUGAGGAUAUCGAAAUUUAUAUUAAUAUUAAUAAAUCGAGAAGGCACAUUUU [JMF 20] (puzzle: Exclusion 1) | 109 | – | – | – | – | –
AUAAAUCAUGUAGGAUAUGCGUGGAGAAGCUAUGCAGAAGGACAUGAGGAUCACCCAUGUGCUUCCGUCUGCGUACAGACGGAA [Mat - Exclusion NG 1 - Mod of JL - D36] (Eterna round: R96, puzzle: Exclusion NG 1) | – | 38 | 89.2 | 131 | – | –
GGCAAUAUGUAGGAUAUCGUAUCGGAAACGAUACGAGAAGGGCAAACAUGAGGAUCACCCAUGUUCUUCAAGCC [Fiskers Ex 6 - 11] (puzzle: Exclusion 6) | 15.6 | – | – | – | – | –
GUAGAGUCAGGAUAUACAAGAUCGAAAGAUCGAAGAUCCAUACAUGAGGAUCACCCAUGUAGAAGGGACUCUAC [ChP 11-04-2015 #3] (puzzle: Exclusion 2) | 16.9 | – | – | – | – | –
CCUAUGUUAGGAUAUUGCUCUCAGCCGUAGGAGGACAUGACCGAGAAGGAACAUGAGGAUCACCCAUGUGUAUU [Eternabot (L2) Solution 53] (Eterna round: R97, puzzle: Exclusion 4) | – | 17.4 | – | 24 | – | –
CAAAAUGUAUAAGGAUAUCUCGCCAAUAAAGGCAGAGAAGGUAUACCCACUUGAGGAUCACCCAAGUCACGUGUGCCUGGUGGA [Mutated MS2 EX1.25] (Eterna round: R96, puzzle: Exclusion NG 1) | – | 9.27 | 9.25 | 11 | – | –
AGCCCUGCAGGAUAUGCCCGGGAUAACAUGAGGAUCACCCAUGUGACUGAUUGUUAUCCUGCAGAAGGGCAUGGGA [JL-EX5-4.13 ViennaUCT mod] (Eterna round: R97, puzzle: Exclusion 5) | – | 547 | – | 1000 | – | –
UAUUUGCAAGCGAGAUCCCACAUGAGGAUCACCCAUGUGCUCGUCUUAUAAGGUACUGUGACGAGAGUCACGGUACC [Mat - Sensor, turn-off var - Eli Mod - D90] (Eterna round: R97, puzzle: Sensor, turn-off variant 1) | – | 15 | – | 15.6 | – | –
CUCGCAUUAGGAUAUACAUGAGGAUCACCCAUGUAUAAACCCAGGGUCAACGCCAUAUGUAGAAGGAGUAGCGA [Eternabot (L1) Solution 59] (Eterna round: R97, puzzle: Exclusion 3) | – | 22.2 | – | 17 | – | –
GAAGAGACAGGAUAUACAUGAGGAUCACCCAUGUGAGUAUGUUGGAGGCGGAGGAGAUGUAGAAGGGUCAAAGA [JR_Exclu3_Sub018] (puzzle: Exclusion 3) | 23.9 | – | – | – | 36.3 | 29.7
CUGUACAUAGGAUAUAGUUGUUUUUACAUGAGGAUCACCCAUGUUACUCCUCUCUCUCUUCUAGAAGGAUGUUUUU [JR_E5_Sub007] (puzzle: Exclusion 5) | 78.1 | – | – | – | – | –
AAAUUGGUAGAGGAUAUCGCACAGGAAACACUGCGAGAAGGCUGCACAUGAGGAUCACCCAUGUUUAGUUGCGA [EX6 #37] (Eterna round: R97, puzzle: Exclusion 6) | – | 22.5 | – | 16.6 | – | –
UACAUGAGGAUCACCCAUGUUUUGUCGUGUAUGGUAUUUAUCUAGGAUAUCAAUCUAUUUAAUUAUGAGAAGGAGAAUAUUAAU [JMF's solution 53] (Eterna round: R96, puzzle: Exclusion NG 3) | – | 37.2 | 32.5 | 39.3 | – | –
UUUUUACAUGAGGAUCACCCAUGUCAGGAUAUCCUUAUAUUUUAUUAUUUUAUUUUUUGGAGAAGGGACUAUUA [My solution] (puzzle: Exclusion 1) | 297 | – | – | – | – | –
UAUUAAGCAAGCAGAUCCCACAUGAGGAUCACCCAUGUGCUCGUCUUAUAAGGUACUGUGACGAAAGUCACGGUACC [Sensor 3, v1 - 91 v12] (Eterna round: R97, puzzle: Sensor, turn-off variant 1) | – | 126 | – | 156 | – | –
GGGUGCGAGCUAAGAUCCUACAUGAGGAUCACCCAUGUGGUCCGGUGACGUGAGUCACCGGACUUAGCUCGUCUUGU [salish99_S_TOV1_R5_005] (Eterna round: R97, puzzle: Sensor, turn-off variant 1) | – | 26.3 | – | 29.2 | – | –
CCUCUAACCUAGGAUAUAGGUAGACCUAGUCGCCUAGAAGGAGGUACAUGAGGAUCACCCAUGUAUAUUGGGCU [Inmaor] (puzzle: Exclusion 6) | 173 | – | – | – | – | –
AGAAGUAGAAACCGAUCCUACAUGAGGAUCACCCAUGUAGCAAGACGUGCACGCGAAGCUCGUCAGACUACCAGAUG [salish99_TOv1_r3_017] (puzzle: Sensor v3, turn-off variant 1) | 108 | – | – | – | 297 | 313

Sequence | apparent KD of MS2 coat protein [1] [nM] | apparent KD of MS2 coat protein (input ligand: FMN 200 uM) [nM] | apparent KD of MS2 coat protein [2] [nM] | apparent KD of MS2 coat protein (input ligand: none) [nM] | apparent KD of MS2 coat protein [3] [nM] | apparent KD of MS2 coat protein [4] [nM]
GUCCUGGACUAUCACAAGCACAUGAGGAUCACCCAUGUCAUGGGUAGAUCCCUAAAUAAAGAUACUGCUCGUCUUAU [Cac sensor turnoff var1 sub6] (Eterna round: R97, puzzle: Sensor, turn-off variant 1) | – | 160 | – | 300 | – | –
GCAGCUAAUGCAGGAUAUCAGCACGUGUAGUGCUGAGAAGGGCACAUGAGGAUCACCCAUGUGAUCAAUUAAUAUUAAUGCUGC [ENG1/11-B3] (Eterna round: R96, puzzle: Exclusion NG 1) | – | 328 | 16.2 | 20.5 | – | –
AAGAAACAUGAGGAUCACCCAUGUGAGGAUAUGACCAAGAAAAGAAAAGAAAGAAGAUUCAGAAGGCACAAAGG [salish99-ex1_r3_060] (puzzle: Exclusion 1) | 29.9 | – | – | – | 49.7 | 40.7
UAUGGUUAAGUCAGGAUAUGCACGAAGAGAACAAAGCAGAAGGGACAUGAGGAUCACCCAUGUAAAGUCGUGUU [Ex4 #76] (Eterna round: R97, puzzle: Brourd's mod of Exclusion 4) | – | 28.4 | – | 32 | – | –
AGGUCACAUGAGGAUCACCCAUGUGAGGAUAUUUACUCAAGAGCUUCGGCUCUCAAGUGAAGAAGGCGCAAUGA [EX1 #53] (Eterna round: R97, puzzle: Exclusion 1) | – | 34.6 | – | 32.8 | – | –
AUUUCGGCAGGAUAUACAUGAGGAUCACCCAUGUAAAUUUUUCGUUUAACUUGAAUGUGUAGAAGGGCCAUUUA [Ex3 #61] (Eterna round: R97, puzzle: Exclusion 3) | – | 21.8 | – | 26.6 | – | –
GCUCGUUUUGUCAGGAUAUUGAGUCAGCUUAAGCUCGAGAAGGGACAUGAGGAUCACCCAUGUACCGCACAAUU [BmEX4 B.29] (Eterna round: R97, puzzle: Brourd's mod of Exclusion 4) | – | 16.3 | – | 11.1 | – | –
AAACGGCAGGGAGGAUAUGCCUACCUGGGUCGUCUUCAAACAUGAGGAUCACCCAUGUAGUCGACGCAGAAGGCCCUCAAAGCC [Ontiis] (Eterna round: R96, puzzle: Exclusion NG 2) | – | 38.7 | 8.22 | 12.7 | – | –
CUCCUCAUGGCGCCUAAACACAUGAGGAUCACCCAUGUACAGGCUUCUUGCCGUCUUAUAAUAAAACCGAGGAUGCG [Onleorqula] (puzzle: Sensor v3, turn-off variant 1) | 283 | – | – | – | 43.8 | 47.3
UAACAUGUCUGAGGAUAUCUGCACGUGUAGUGCAGAGAAGGCAGAACAUGAGGAUCACCCAUGUAGAUCAUUAAUUAAUUAAUU [ENG1/7-B3] (Eterna round: R96, puzzle: Exclusion NG 1) | – | 765 | 337 | 478 | – | –
AUAUUGUGAGGAUAUGAACUUAGUAUCGAAAGAUACUUAGUUCAGAAGGCACAUGAGGAUCACCCAUGUUUCUC [Long static hairpin v17] (Eterna round: R97, puzzle: Exclusion 4) | – | 883 | – | 69.8 | – | –
AUUAUUUAAGUCAGGAUAUCGUAUUUAUUUAAAUACGAGAAGGGACAUGAGGAUCACCCAUGUAAUAAAUUUUA [JMFs Solution 2] (puzzle: Brourd's mod of Exclusion 4) | 16.6 | – | – | – | – | –
AAAAAGAGAGGAUAUACAUGAGGAUCACCCAUGUGAGGGCACCGCGGGCGCGGGACCCGUAGAAGGCUCAAAAA [Exc;s3-I] (puzzle: Exclusion 3) | 14.7 | – | – | – | 16.5 | 20.5
AAUGCUGGUGUGAGGAUAUCAGCUGAAGAACAGAAUGAGAAGGCACAUGAGGAUCACCCAUGUAAAAGAAUAAA [Atbelaqu] (Eterna round: R97, puzzle: Brourd's mod of Exclusion 4) | – | 35.9 | – | 25.6 | – | –
CGAUGAGGAGUGAGGAUAUCGUGUUCGAAAGAACGUGAGAAGGCACAUGAGGAUCACCCAUGUGAUUCUUAUCG [Omei Ex4B A19] (Eterna round: R97, puzzle: Brourd's mod of Exclusion 4) | – | 77 | – | 25.5 | – | –
UUUACAAGCUUUUGAUCCCACAUGAGGAUCACCCAUGUUGCUGCCGUGAGGUAGCAUUUAACAAAUGCUCGUCUUAU [JL TOV1 3.54] (Eterna round: R97, puzzle: Sensor, turn-off variant 1) | – | 404 | – | 1380 | – | –
GGAGGAAAGAUAGGAUAUUAGAGGAAGGUGGUGAUAGAGACAUGAGGAUCACCCAUGUAAGGAGGUAAGAAGGGUCGAGGAGGA [AK ExNG2-V2-6] (Eterna round: R96, puzzle: Exclusion NG 2) | – | 231 | 66.5 | 243 | – | –
